Experimental data published in patent US20220354938A1.

Molecular target: C2 epitope-peptide (…, SEQ ID NO:21) / human HLA-A2 MHC class I molecule complex on the cell surface (human; human CMV)

Q: How did the iMFI turn out when “TCR CMV-pp65-PE STAR™ multimer reagent (Altor Bioscience Corp., Miramar, Fla., U.S.)” was run?
A: The iMFI was 10100 RFU.

Q: And the percentage of pMHC I complex presenting cells?
A: Its percentage of pMHC I complex presenting cells is 35%.
